According to PMC5079754 (Biochimica et biophysica acta, 2016):

Tests used:
[1] = target: Tmod1s1 (res. 1–38 of Tmod1); assay: CD thermal unfolding at 222 nm of Tpm1.1 model peptide complexes with Tmod1s1; format: binding, Gallus gallus
[2] = peptide alone, versus WT αTM1a1-21Zip
[3] = target: Lmod2s1 (N-terminal residues 2-41 of leiomodin-2) (human) (UniProt Q6P5Q4); assay: NMR titration; conditions: scale: two-chained αTM1a_(1-14)Zip molecule per Lmod2s1
[4] = target: Lmod2s1 (N-terminal residues 2-41 of leiomodin-2) (human) (UniProt Q6P5Q4); assay: circular dichroism, thermal unfolding
[5] = target: Tmod1s1 peptide (residues 1-38 of tropomodulin-1) (Gallus gallus); assay: circular dichroism, thermal unfolding

UniProt Q6P5Q4, sequence (Q6P5Q4 2-41): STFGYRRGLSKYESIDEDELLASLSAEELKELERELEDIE

## H-GMDAIKKKMQMLKLDNENALDRNYHLENEVARLKKLVGER-OH [αTM1a1–21Zip[K15N]]
[1]; read-out: Kd (30°C,µM), Tmod1s1, 30°C, Kd=exp(−ΔΔG/RT) from CD unfolding of the complex and of the Tpm1.1 peptide alone, 40 µM equimolar, 10 mM sodium phosphate pH 7.0, 100 mM NaCl, duplicates
  Kd: 3.77 ± 0.01 µM
[1]; versus WT αTM1a1-21Zip, P<0.001, One Way ANOVA
  fold reduction of affinity of Tmod1s1 by the K15N mutation: four-fold
[2]
  decrease in the Tm caused by the K15N mutation: ~ 6 °C

## αTM1a_(1-14)Zip, model Tpm1.1 peptide (from UniProt P09493-1 1-14)
[3]
  stoichiometry N: 1

## αTM1a_(1-21)Zip, model Tpm1.1 peptide (from UniProt P09493-1 1-21)
[4]
  Kd: 370 nM
[5]
  Kd: 1000 nM

## αTM1a_(1-21)Zip[K15N], model Tpm1.1 peptide with the dilated cardiomyopathy-associated mutation K15N (from UniProt P09493-1 1-21)
[4]
  Kd: 2310 nM
[5]
  Kd: 3770 nM
